# Reference: publication doi:10.1101/2025.09.11.675134, “Biodistribution-Driven Discovery Identifies a Glycosidase-Cleavable Linker to Reprogram Radiotheranostics” (bioRxiv, 2025)
# Like-named read-outs stand apart in the source and are kept apart here. Positions of bridges follow the written chain, without caps; N, C: chain ends. Non-standard residues stand in square brackets, D forms with d. Residues, ends and D or L forms follow the SMILES beside them. *: point of attachment. DOTA = O=C(O)CN1CCN(CC(=O)O)CCN(CC(=O)*)CCN(CC(=O)O)CC1
# Assay: Ex vivo biodistribution screen of 111In-labeled DOTA-TATE derivatives in normal mice
# Set-up: species or system athymic nude mice
# Settings: 2 h post-injection; for tissue uptake at 2 h: athymic nude, mouse, iv, 1 ug per mouse, total radioactivity; for Relative kidney retention, % rel. to DOTA-TATE: normal mice, 111In-DOTA-TATE set as 100%
# Protocol: The panel of 10 compounds were then tested in an initial biodistribution screen of 9 organs assessed in non-tumor-bearing mice at specific timepoints following administration of the radioconjugates. Each agent was initially labeled with ^111In, a long-lived gamma-emitting radioisotope suitable for biodistribution studies, with high radiochemical yields and purity (Fig. S12). The compounds were then dosed (1.55 ± 0.12 MBq; 1 μg per mouse) in healthy athymic nude mice via intravenous (i.v.) injection in phosphate-buffered saline (PBS; vehicle). After 2 hours, the mice were sacrificed and ex vivo biodistribution analysis was performed (Fig. 2). […] This was an expected finding because this variant was designed to bind serum albumin.
# Radiolabeling and In Vivo Evaluation of DOTA-TATE Variants:
# Biodistribution, PET Quantification, and Dosimetry
# Radiolabeling: To perform the initial biodistribution screen, radiolabeling of 10 compounds, including DOTA-TATE, was carried out using 111In (Cardinal Health, Arbutus, MD, USA), an affordable and readily available gamma -emitting radioisotope with a moderate half -life (2.83 days), which affords efficient DOTA radiolabeling and facilitates handling. 111InCl3 (28 – 36 MBq) was diluted with 0.4 M NH 4OAc buffer (pH 5.2) and combined with DOTA -TATE variants (20 μg). The solution was mixed well and then incubated at 90 °C for 30 min.
# Radiolabeling efficiency and radiochemical purity were determined by radio -TLC and radio - HPLC. Radiochemical yield was >95% and the material was used without further purification.
# The specific activity was 1.55 ± 0.12 TBq/g (41.9 ± 3.2 Ci/g). […]
# Radio-instant thin-layer chromatography (radio-iTLC) was performed using silicic acid-impregnated glass microfiber paper strips (iTLC-SA, Varian, Lake Forest, CA, USA) as the stationary phase, and 50 mM EDTA in 100 mM NH4OAc (pH 5.5) as the mobile phase, analyzed with a radio-TLC scanner (AR-2000, Eckert-Ziegler, Wilmington, MA, USA). For Ac-225, equilibration was allowed for at least 12 hours before scanning the TLC strips to confirm initial scans. Radio-HPLC analysis (Agilent 1260 Infinity II, Agilent Technologies Inc., Santa Clara, CA, USA) was conducted on a TSK- Octadecyl-4PW column (5 µm, 4.6 mm ID × 15 cm, Tosoh
# Co. Tokyo, Japan) with gradient elution using 0.1% trifluoroacetic acid in water as mobile phase A and 0.1% trifluoroacetic acid in acetonitrile as Mobile phase B. The elution sequence was 0-5 […]
# PET imaging and biodistribution: For initial biodistribution screen studies, normal mice were administered 1.4 – 1.8 MBq (1 μg) of 111In-DOTA-TATE variants via tail vein injection and biodistribution studies were conducted at 2 hours post -injection (n = 2 – 4 per cohort).
# For studies involving three variants (DOTA -TATE, DOTA-MVK(ε)-TATE, and DOTA-β-Gal-TATE), AR42J cells (5 × 10^6 cells per mouse) were subcutaneously inoculated into the right shoulder of the mice. Tumors were allowed to grow for 3 weeks, reaching a volume of 100 –200 mm³ before being used in subsequent experiments. For biodistribution or PET imaging studies, mice bearing subcutaneous AR42J tumors were administered 1.4 – 1.8 MBq (1 μg) of 111In-labeled DOTA-TATE variants or 2.7 – 4.9 MBq (1 μg) of 86Y-labeled DOTA-TATE variants via tail vein injection. Biodistribution studies with 111In-labeled DOTA -TATE variants were performed 1 hour post -injection (n = 3 per cohort), while studies with 86Y-labeled DOTA-TATE variants were conducted at 1, 4, and 24 hours post -injection (n = 3 per cohort). Mice were euthanized by CO2 asphyxiation, and 10 tissues, including tumors, were collected. All samples were weighed and counted on a gamma counter (2480 Wizard 3, Perkin Elmer Inc., Waltham, MA, USA). Results are presented as percentage of injected activity per gram (%IA/g) and mean values ± standard deviations.
# PET imaging to assess the uptake of three 86Y-labeled DOTA-TATE variants (2.7 – 4.9 MBq, 1 […]
# [1] = blood, normal athymic nude mice, i.v. 1 μg (1.4–1.8 MBq), ex vivo gamma counting, mean, n = 2–4, read-out: Blood uptake
# [2] = femur, normal athymic nude mice, i.v. 1 μg, ex vivo, mean, n = 2–4, read-out: Femur uptake
# [3] = heart, normal athymic nude mice, i.v. 1 μg, ex vivo, mean, n = 2–4, read-out: Heart uptake
# [4] = intestine, normal athymic nude mice, i.v. 1 μg, ex vivo, mean, n = 2–4, read-out: Intestine uptake
# [5] = liver, normal athymic nude mice, i.v. 1 μg, ex vivo, mean, n = 2–4, read-out: Liver uptake
# [6] = lung, normal athymic nude mice, i.v. 1 μg, ex vivo, mean, n = 2–4, read-out: Lung uptake
# [7] = muscle, normal athymic nude mice, i.v. 1 μg, ex vivo, mean, n = 2–4, read-out: Muscle uptake
# [8] = spleen, normal athymic nude mice, i.v. 1 μg, ex vivo, mean, n = 2–4, read-out: Spleen uptake
SMILES,tissue uptake at 2 h [1] [%ID/g],tissue uptake at 2 h [2] [%ID/g],tissue uptake at 2 h [3] [%ID/g],tissue uptake at 2 h [4] [%ID/g],tissue uptake at 2 h [5] [%ID/g],tissue uptake at 2 h [6] [%ID/g],tissue uptake at 2 h [7] [%ID/g],tissue uptake at 2 h [8] [%ID/g],"Relative kidney retention, % rel. to DOTA-TATE [%]","tissue uptake at 2 h (kidney, normal athymic nude mice, i.v. 1 μg, ex vivo, mean (± SD), n = 2–4, read-out: Kidney uptake) [%ID/g]","Kidney uptake (normal athymic nude mice, i.v. 1 μg, ex vivo, mean (± SD), n = 2–4) [%IA/g]","tissue uptake at 2 h (in vivo, normal athymic nude mice, i.v. 1 μg (1.4–1.8 MBq), ex vivo gamma counting, mean, n = 2–4, read-out: Blood uptake) [%ID/g]","tissue uptake at 2 h (in vivo, normal athymic nude mice, i.v. 1 μg, ex vivo, mean (± SD), n = 2–4, read-out: Kidney uptake) [%ID/g]","tissue uptake at 2 h (in vivo, normal athymic nude mice, i.v. 1 μg, ex vivo, mean, n = 2–4, read-out: Femur uptake) [%ID/g]","tissue uptake at 2 h (in vivo, normal athymic nude mice, i.v. 1 μg, ex vivo, mean, n = 2–4, read-out: Heart uptake) [%ID/g]","tissue uptake at 2 h (in vivo, normal athymic nude mice, i.v. 1 μg, ex vivo, mean, n = 2–4, read-out: Intestine uptake) [%ID/g]","tissue uptake at 2 h (in vivo, normal athymic nude mice, i.v. 1 μg, ex vivo, mean, n = 2–4, read-out: Liver uptake) [%ID/g]","tissue uptake at 2 h (in vivo, normal athymic nude mice, i.v. 1 μg, ex vivo, mean, n = 2–4, read-out: Lung uptake) [%ID/g]","tissue uptake at 2 h (in vivo, normal athymic nude mice, i.v. 1 μg, ex vivo, mean, n = 2–4, read-out: Muscle uptake) [%ID/g]","tissue uptake at 2 h (in vivo, normal athymic nude mice, i.v. 1 μg, ex vivo, mean, n = 2–4, read-out: Spleen uptake) [%ID/g]"
"C[C@@H](O)[C@H](NC(=O)[C@@H]1CSSC[C@H](NC(=O)[C@@H](Cc2ccccc2)NC(=O)[C@H](Cc2ccc(O)cc2)NC(=O)CNC(=O)CN2CCN(CC(=O)O)CCN(CC(=O)O)CCN(CC(=O)O)CC2)C(=O)N[C@@H](Cc2ccc(O)cc2)C(=O)N[C@H](Cc2c[nH]c3ccccc23)C(=O)N[C@@H](CCCCN)C(=O)N[C@@H]([C@@H](C)O)C(=O)N1)C(=O)O [^111In-DOTA-GY-TATE, metal not drawn] ({DOTA}-GY[dF]CY[dW]KTCT-OH; disulfide 4-9)",0.09,0.14,0.09,0.74,0.18,1.07,0.03,0.17,297,–,–,–,–,–,–,–,–,–,–,–
"C[C@@H](O)[C@H](NC(=O)[C@@H]1CSSC[C@H](NC(=O)[C@@H](Cc2ccccc2)NC(=O)CCCC(=O)Nc2cc(COC(=O)N(C)CCNC(=O)CN3CCN(CC(=O)O)CCN(CC(=O)O)CCN(CC(=O)O)CC3)ccc2O[C@@H]2O[C@H](C(=O)O)[C@@H](O)[C@H](O)[C@H]2O)C(=O)N[C@@H](Cc2ccc(O)cc2)C(=O)N[C@H](Cc2c[nH]c3ccccc23)C(=O)N[C@@H](CCCCN)C(=O)N[C@@H]([C@@H](C)O)C(=O)N1)C(=O)O [^111In-DOTA-GlcA-TATE, metal not drawn]",0.08,0.1,0.08,0.44,0.13,0.19,0.03,0.08,147,8.88,–,–,–,–,–,–,–,–,–,–
"CSCC[C@H](NC(=O)CN1CCN(CC(=O)O)CCN(CC(=O)O)CCN(CC(=O)O)CC1)C(=O)N[C@H](C(=O)N[C@@H](CCCCN)C(=O)N[C@H](Cc1ccccc1)C(=O)N[C@H]1CSSC[C@@H](C(=O)N[C@H](C(=O)O)[C@@H](C)O)NC(=O)[C@H]([C@@H](C)O)NC(=O)[C@H](CCCCN)NC(=O)[C@@H](Cc2c[nH]c3ccccc23)NC(=O)[C@H](Cc2ccc(O)cc2)NC1=O)C(C)C [^111In-DOTA-MVK-TATE, metal not drawn] ({DOTA}-MVK[dF]CY[dW]KTCT-OH; disulfide 5-10)",0.09,0.25,0.07,0.78,0.25,0.51,0.02,0.18,1251,–,75.65,–,–,–,–,–,–,–,–,–
"C[C@@H](O)[C@H](NC(=O)[C@@H]1CSSC[C@H](NC(=O)[C@@H](Cc2ccccc2)NC(=O)CCCC(=O)Nc2cc(COC(=O)N(C)CCNC(=O)CN3CCN(CC(=O)O)CCN(CC(=O)O)CCN(CC(=O)O)CC3)ccc2O[C@@H]2O[C@H](CO)[C@@H](O)[C@H](O)[C@H]2O)C(=O)N[C@@H](Cc2ccc(O)cc2)C(=O)N[C@H](Cc2c[nH]c3ccccc23)C(=O)N[C@@H](CCCCN)C(=O)N[C@@H]([C@@H](C)O)C(=O)N1)C(=O)O [^111In-DOTA-β-Glu-TATE, metal not drawn]",–,–,–,–,–,–,–,–,105,–,–,0.09,6.34,0.21,0.07,1.07,0.19,0.51,0.03,0.16
